Measured values published in paper PMC4807281, “Glutathionylation of the Bacterial Hsp70 Chaperone DnaK Provides a Link between Oxidative Stress and the Heat Shock Response” (The Journal of Biological Chemistry, 2016).

Molecular target: Cys15 (UniProt position 15, GTTNSCVAIMD)
Test: UV-vis
Conditions: 25 °C; 100 mM KCl, 5 mM MgCl2 (plus KOH added during titration); Buffer B: 50 mM Tris-HCl, pH 7.5, 100 mM KCl, 5 mM MgCl2. The pH was raised by stepwise addition of 6 N KOH in Buffer B.; Reduced (free thiol) DnaK with no nucleotide or peptide added (apo state), 15 μM protein

Substance: Chaperone protein DnaK (Hsp70) (Escherichia coli)
- pKa: about 12
